Test system: murine SOD1 mRNA
Assay: siRNA biodistribution and SOD1 mRNA by in situ hybridization (miRNAScope / RNAScope)
Format: in vivo, C57Bl/6 mice
Details: single ICV dose 100 µg, seven days
Description: For ISH bioanalysis, 20 µm sagittal cryosections of left brain hemispheres or coronal sections of spinal cords were prepared using a cryostat at -20°C (Leica), collected onto superfrost plus slides and stored at - 80°C until processing. For RNAScope® or miRNAScope® assays, slides containing cyosections were immediately transferred and fixed in 10% Neutral buffered formalin (NBF) for 1h30 at RT. Fluorescent RNAscope® assay for mRNAs detection or chromogenic miRNAscope® assay for siRNA detection were performed according to the manufacter's protocols (Advanced Cell Diagnostics, ACD). […] This distribution correlates with a broad and potent SOD1 mRNA knock-down, as assessed using RNAScope® (Figure 29B and 29E, right panels). […]
For ISH bioanalysis, 20 µm sagittal cryosections of left brain hemispheres or coronal sections of spinal cords were prepared using a cryostat at -20°C (Leica), collected onto superfrost plus slides and stored at - 80°C until processing. […] This distribution correlates with a broad TfR-dependent and potent SOD1 mRNA knock-down, as assessed using RNAScope® (Figure 31C and 31I, right panels).
An example of cleavable linker was evaluated and compared to the C5-hFc-siSOD1m-5'VP for its biodistribution in CNS tissues following systemic administration. […]

B1: C5-siSOD1m-5'VP: TfR-binding VHH-siRNA conjugate wherein VHH is C5 (conjugate)
VHH: EVQLVESGGGVVQPGGSLKLSCVASGTDFSINFIRWYRQAPGKQREFVAGFTATGNTNYADSMKGRFTISRDNTKNAVYLQIDSLKPEDTAVYYCYMLDKWGQGTQVTVSSAAAEQKLISEEDLNGAAHHHHHHGS
biodistribution of the siSOD1m AS strand in brain and spinal cord: broad biodistribution
